Data reported in patent publication US6716809B1, “Mage-A3 peptides presented by HLA class molecules” (priority 1997, dated 2004).

System: clone C3.22
Assay: IFN-γ production by CD4 clone C3.22 stimulated with peptide- or protein-pulsed EBV-B cells
Type: cell-based, human
Settings: 20 μg/ml protein
Procedure: EBV-B cells from hemochromatosis patient 1981 (LB-1981-EBV) were incubated with 20 μg/ml of ovalbumin (OVA) or MAGE-A3 protein (bacteria) for 20 h. Ten thousand cells were distributed in microwells to which an aliquot of microculture C3 (˜4,000 effector cells) was added. Several clones were obtained from microculture C3, in particular CD4^+ clones LB1981-CD4 527/C3.22 (referred to hereafter as clone C3.22) and LB1981-CD4 527/C3.43 (referred to hereafter as clone C3.43). The clones C3.22 and C3.43 (˜3,000 cells) were stimulated with LB-1981-EBV incubated with 20 μg/ml of MAGE-A3 (˜16,000 cells) or transduced with a retrovirus coding for a fusion protein Ii-MAGE-A3 (˜20,000 cells). IFN-γ production in the supernatant was estimated after overnight culture by ELISA. They both recognized autologous EBV-B cells loaded with protein MAGE-A3 (bacteria) or transduced with a retrovirus encoding a truncated invariant chain (Ii)-MAGE-A3 fusion protein (FIG. 17). These (most probably twin) clones recognized cells expressing Ii-MAGE-A3 endogenously and therefore they are directed against a MAGE-A3-derived antigen and not against a contaminant in the batch of protein.
The antigenic peptides were identified as described above, except that the peptides were tested at a concentration of 1 μg/ml and that the test was performed in 100 μl. Peptides LGDPKKLLTQHFVQEN (SEQ ID NO:82), KKLLTQHFVQENYLEY (SEQ ID NO:83), TQHFVQENYLEYRQVP (SEQ ID NO:84) and VQENYLEYRQVPGSDP (SEQ ID NO:85) were tested. Autologous EBV-B cells were incubated for 1 h with 1 μg/ml of each of the peptides. Clone C3.43 (3,000 cells) was then cocultured with 20,000 peptide-pulsed cells for 20 h. IFN-γ production in the supernatant was measured by ELISA.
Patient LB1981 was typed DPB1*0401. To confirm that DPB1*0401 was the presenting HLA-DP molecule, additional EBV-B cell lines were tested. Autologous LB 1981-EBV or allogeneic-EBV-B cells were incubated for 1 h with 1 μg/ml of peptides, and washed. CD4 clones (3,000 cells) were then incubated for 20 h with 20,000 peptide-pulsed EBV-B cells. IFN-γ released in the supernatant was measured by ELISA. Those EBV-B cell lines expressing DPB1*0401 were able to present the MAGE-A3243-258 peptide to clone C3.22 (Table VII). DPB1*0401 is expressed in approximately 64% of Caucasians.

B1: MAGE-A3: MAGE-A3 protein; recombinant His-MAGE-A3 produced in E. coli, or expressed from MFG MAGE-A3 retrovirus in Example 6 (protein, listed as Homo sapiens)
chain: MPLEQRSQHCKPEEGLEARGEALGLVGAQAPATEEQEAASSSSTLVEVTLGEVPAAESPDPPQSPQGASSLPTTMNYPLWSQSYEDSSNQEEEGPSTFPDLESEFQAALSRKVAELVHFLLLKYRAREPVTKAEMLGSVVGNWQYFFPVIFSKASSSLQLVFGIELMEVDPIGHLYIFATCLGLSYDGLLGDNQIMPKAGLLIIVLAIIAREGDCAPEEKIWEELSVLEVFEGREDSILGDPKKLLTQHFVQENYLEYRQVPGSDPACYEFLWGPRALVETSYVKVLHHMVKISGGPHISYPPLHEWVLREGEE
modifications: His tag
recognition by clone C3.22 of autologous EBV-B cells loaded with protein: recognized
